The values that follow come from patent US20110112279A1 (published 2011).

Assay [1] deals with T1, human STOP-1, full length, C-terminal 8xHis tag (h762HIP; M1-K243-His), expressed in CHO-psgb cells (UniProt Q96CG8 31-243). Put plainly: competitive ELISA; F/F: coated full length, competed full length.
Assay [2] concerns the target T2, human STOP-1 short form (L94-K243) with C-terminal His tag, baculovirus expressed (UniProt Q96CG8 94-243). Put plainly: competitive ELISA.
Assay [3] addresses T1, human STOP-1, full length, C-terminal …. Put plainly: competitive ELISA. In general terms: An ELISA detects its analyte on a solid surface through an enzyme-linked reagent.
In assay [4] the target is T2, human STOP-1 short form (L94-K243) with …. Put plainly: competitive ELISA; S/S: coated short form, competed short form.

T1 sequence (Q96CG8 other isoform, or with tags, fused parts or gaps): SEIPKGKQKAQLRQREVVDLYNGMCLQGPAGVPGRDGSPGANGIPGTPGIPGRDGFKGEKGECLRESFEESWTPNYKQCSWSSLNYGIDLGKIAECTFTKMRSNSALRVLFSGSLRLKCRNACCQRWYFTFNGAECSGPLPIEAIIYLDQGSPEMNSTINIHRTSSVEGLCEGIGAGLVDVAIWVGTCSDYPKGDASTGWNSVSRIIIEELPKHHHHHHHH
T2 sequence (Q96CG8 94-243): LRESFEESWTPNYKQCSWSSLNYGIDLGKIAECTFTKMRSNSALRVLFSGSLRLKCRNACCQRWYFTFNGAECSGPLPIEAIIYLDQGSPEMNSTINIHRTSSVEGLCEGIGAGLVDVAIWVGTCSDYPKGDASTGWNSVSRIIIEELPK

B1: S4 Fab (antibody)
chain 1: MKKNIAFLLASMFVFSIATNAYADIQMTQSPSSLSASVGDRVTITCRASQDVSTAVAWYQQKPGKAPKLLIYSASFLYSGVPSRFSGSGSGTDFTLTISSLQPEDFATYYCQQSYTTPPTFGQGTKVEIKRTVAAPSVFIFPPSDEQLKSGTASVVCLLNNFYPREAKVQWKVDNALQSGNSQESVTEQDSKDSTYSLSSTLTLSKADYEKHKVYACEVTHQGLSSPVTKSFNRGECGASSGMADPNRFRGKDLA
chain 2: MKKNIAFLLASMFVFSIATNAYAEVQLVESGGGLVQPGGSLRLSCAASGFTISGSWIHWVRQAPGKGLEWVAWIAPYSGATDYADSVKGRFTISADTSKNTAYLQMNSLRAEDTAVYYCAREGGLYWVFDYWGQGTLVTVSSASTKGPSVFPLAPSSKSTSGGTAALGCLVKDYFPEPVTVSWNSGALTSGVHTFPAVLQSSGLYSLSSVVTVPSSSLGTQTYICNVNHKPSNTKVDKKVEPKSCDKTHL
B1: the dissociation constant (Kd) (commonly the equilibrium constant for the complex coming apart) in assay [1] was found to be 13.4 nM; in assay [2], 1.9 nM; in assay [3], 13 nM.

B2: S7 IgG (full-length human IgG1; LPG3-humankappaG6 and LPG4-humanHC-S7), expressed in CHO cells (antibody, V domains shown)
VH: EVQLVESGGGLVQPGGSLRLSCAASGFTISGSDIHWVRQAPGKGLEWVGRISPYGGNTNYADSVKGRFTISADTSKNTAYLQMNSLRAEDTAVYYCARVGGLKLLFDYWGQGTLVTVSS
VL: DIQMTQSPSSLSASVGDRVTITCRASQDVSTAVAWYQQKPGKAPKLLIYSASFLYSGVPSRFSGSGSGTDFTLTISSLQPEDFATYYCQQSYTTPPTFGQGTKVEIKR
B2: the equilibrium dissociation constant (Kd) stood at 7.3 nM in assay [4], 41 nM in assay [1], 7.3 nM in assay [2] and 41 nM in assay [3].

B3: S4 IgG (full-length human IgG1; LPG3-humankappaG6 and LPG4-humanHC-S4), expressed in CHO cells (antibody)
light: DIQMTQSPSSLSASVGDRVTITCRASQDVSTAVAWYQQKPGKAPKLLIYSASFLYSGVPSRFSGSGSGTDFTLTISSLQPEDFATYYCQQSYTTPPTFGQGTKVEIKRTVAAPSVFIFPPSDEQLKSGTASVVCLLNNFYPREAKVQWKVDNALQSGNSQESVTEQDSKDSTYSLSSTLTLSKADYEKHKVYACEVTHQGLSSPVTKSFNRGEC
heavy: not shown
Consider B3, for which the Kd was 0.5 nM in assay [4], 3.1 nM in assay [1], 0.5 nM in assay [2] and 3 nM in assay [3].
